From patent publication US20180360932A1 (OPKO BIOLOGICS, published 2018)
Each block holds one substance with its values, some of them ahead of it.

Tests used:
Test in all cases: cell-based or functional assay
Factor X = Factor X (UniProt P00742)
Factor X (FX) = Factor X (FX) (UniProt P00742)
MOD-5014/TF complex = MOD-5014/TF complex (UniProt P13726)
MOD-5000/TF complex = MOD-5000/TF complex (UniProt P08709)

Sequence of Factor X (P00742 41-488 limits assumed): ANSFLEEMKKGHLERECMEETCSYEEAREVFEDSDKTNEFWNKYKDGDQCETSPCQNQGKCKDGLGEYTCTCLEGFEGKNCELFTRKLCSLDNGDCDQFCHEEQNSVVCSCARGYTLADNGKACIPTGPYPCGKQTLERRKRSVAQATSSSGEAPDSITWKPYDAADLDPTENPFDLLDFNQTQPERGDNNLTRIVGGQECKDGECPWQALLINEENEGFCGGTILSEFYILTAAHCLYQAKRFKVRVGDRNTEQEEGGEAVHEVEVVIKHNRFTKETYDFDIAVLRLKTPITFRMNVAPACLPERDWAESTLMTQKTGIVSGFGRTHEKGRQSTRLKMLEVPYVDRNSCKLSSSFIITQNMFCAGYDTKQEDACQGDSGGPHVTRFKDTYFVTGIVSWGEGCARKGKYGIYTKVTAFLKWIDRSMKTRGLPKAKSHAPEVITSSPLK
Sequence of Factor X (FX) (P00742 41-488 limits assumed): as above

O.D, FX activation (chromogenic), rFVIIa 0.0320 ng/ml (Factor X): 0.138 O.D
O.D, FX activation (chromogenic), rFVIIa 0.160 ng/ml (Factor X): 0.178 O.D
O.D, FX activation (chromogenic), rFVIIa 0.80 ng/ml (Factor X): 0.303 O.D
O.D, FX activation (chromogenic), rFVIIa 4.00 ng/ml (Factor X): 0.352 O.D
O.D, FX activation (chromogenic), rFVIIa 20.00 ng/ml (Factor X): 0.365 O.D
O.D, FX activation (chromogenic), rFVIIa 100.00 ng/ml (Factor X): 0.363 O.D
Substance: NovoSeven (commercial recombinant human FVIIa) (from UniProt P08709 61-212; P08709 213-466) (enzyme)

EC50 of Factor X activation (BIOPHEN FVII chromogenic assay) (Factor X (FX)): 0.38 ng/mL
Substance: Recombinant human FVIIa (NovoSeven) (from UniProt P08709 61-212; P08709 213-466) (enzyme)

K (rate constant of the loss of FVIIa/TF activity with AT 1 uM and heparin 5 U/mL) (MOD-5014/TF complex): 0.217 Min·^1
K (rate constant of the loss of FVIIa/TF activity with AT 1 uM and heparin 5 U/mL) (MOD-5000/TF complex): 0.354 Min·^1
Substance: Anti-thrombin (AT) (from UniProt P01008 33-464)
